In patent US20120270914A1 (Stanford University, published 2012):
Each block holds one binder with its values, some of them ahead of it.

Target: NFL-c-Myc (firefly, UniProt P08659 1-398 = luciferase, phosphorylated in the cells at S62 and T58 (c-Myc numbering))
Experiment: cell-based or functional assay

Sequence of NFL-c-Myc (P08659 other isoform, or with tags, fused parts or gaps limits assumed): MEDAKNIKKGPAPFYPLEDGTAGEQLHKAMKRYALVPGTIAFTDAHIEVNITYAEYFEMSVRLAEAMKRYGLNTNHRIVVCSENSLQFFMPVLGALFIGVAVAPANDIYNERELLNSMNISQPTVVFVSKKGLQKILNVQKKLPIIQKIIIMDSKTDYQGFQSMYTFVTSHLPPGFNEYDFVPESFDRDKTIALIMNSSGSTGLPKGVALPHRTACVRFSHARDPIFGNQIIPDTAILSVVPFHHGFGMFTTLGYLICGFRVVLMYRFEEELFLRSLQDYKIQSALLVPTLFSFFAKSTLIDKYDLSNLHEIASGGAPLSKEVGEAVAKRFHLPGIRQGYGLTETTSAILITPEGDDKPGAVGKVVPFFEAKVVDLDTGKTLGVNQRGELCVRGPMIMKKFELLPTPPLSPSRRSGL

complemented FL activity of SKBR3 xenografts in nude mice, normalized to hRL activity, compared with pcDNA3.1(+) vector: 10.6 fold
B1: GSK 35-433-CFL (other, not shown: large carriers)
chain: SKVTTVVATPGQGPDRPQEVSYTDTKVIGNGSFGVVYQAKLCDSGELVAIKKVLQDKRFKNRELQIMRKLDHCNIVRLRYFFYSSGEKKDEVYLNLVLDYVPETVYRVARHYSRAKQTLPVIYVKLYMYQLFRSLAYIHSFGICHRDIKPQNLLLDPDTAVLKLCDFGSAKQLVRGEPNVSYICSRYYRAPELIFGATDYTSSIDVWSAGCVLAELLLGQPIFPGDSGVDQLVEIIKVLGTPTREQIREMNPNYTEFKFPQIKAHPWTKDSSGTGHFTSGVRVFRPRTPPEAIALCSRLLEYTPTARLTPLEACAHSFFDELRDPNVKLPNGRDTPALFNFTTQELSSNPPLATILIPPHARIQAAASTPTNATAASDANTGDRGQTNNAASASASNST

complemented FL activity (BLI, SKBR3 cells), compared with the pairing of GSK Full-CFL and NFL-SH2-SH2: > 10 fold
B2: GSK Full-CFL (other, not shown: large carriers)
chain: MSGRPRTTSFAESCKPVQQPSAFGSMKVSRDKDGSKVTTVVATPGQGPDRPQEVSYTDTKVIGNGSFGVVYQAKLCDSGELVAIKKVLQDKRFKNRELQIMRKLDHCNIVRLRYFFYSSGEKKDEVYLNLVLDYVPETVYRVARHYSRAKQTLPVIYVKLYMYQLFRSLAYIHSFGICHRDIKPQNLLLDPDTAVLKLCDFGSAKQLVRGEPNVSYICSRYYRAPELIFGATDYTSSIDVWSAGCVLAELLLGQPIFPGDSGVDQLVEIIKVLGTPTREQIREMNPNYTEFKFPQIKAHPWTKDSSGTGHFTSGVRVFRPRTPPEAIALCSRLLEYTPTARLTPLEACAHSFFDELRDPNVKLPNGRDTPALFNFTTQELSSNPPLATILIPPHARIQAAASTPTNATAASDANTGDRGQTNNAASASASNST
